Patent US20110311555A1

Target: endogenous AP-1 (activator protein 1) in 293 cells, activated by MEKK1
Experiment: cell-based or functional assay
Conditions: scale: normalized promoter activity

AP-1 dependent transactivation (pAP-1-Luc reporter, MEKK1-activated, 293 cells), normalized promoter activity: 176
Substance: Tcl1 R52H (pCMV5-TCL1 R52H construct) (from UniProt P56279 1-114)
